# Measurements taken from the supplement of paper PMC5998384.
# How the values were obtained:
# HeLa Kyoto [1] = experiment: solubility change mitosis vs G1/S (difference of NP-40 vs SDS log2 ratios) (log2 ratio difference); higher = more soluble in mitosis
# HeLa Kyoto [2] = experiment: thermal stability score vs G1/S (z-score of summed log2 fold changes over temperatures); higher = more thermally stable than in G1/S
# HeLa Kyoto [3] = experiment: melting temperature (median over replicates), in situ; higher = more thermally stable
# HeLa Kyoto [4] = experiment: solubility in G1/S (NP-40 vs SDS abundance) (log2 ratio); higher = more soluble; settings: cell cycle stage: G1/S
# [5] = cell cycle stage: early G1 (4.5 h after nocodazole release)
# 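Throughout, for melting temperature (median over replicates), in situ: HeLa Kyoto cells synchronized by double thymidine or nocodazole block, proteins quantified by TMT10plex mass spectrometry, three independent biological replicates.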
# 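Throughout, for solubility change mitosis vs G1/S (difference of NP-40 vs SDS log2 ratios): synchronized HeLa Kyoto cells (double thymidine block for G1/S, nocodazole release for mitosis), protein amounts in NP-40 versus SDS lysates quantified by mass spectrometry, three biological replicates.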
# 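Throughout, for solubility in G1/S (NP-40 vs SDS abundance): HeLa Kyoto cells arrested at G1/S by double thymidine block, proteins quantified by TMT10plex mass spectrometry in mild NP-40 versus SDS extracts, three biological replicates.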
# 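Throughout, for thermal stability score vs G1/S (z-score of summed log2 fold changes over temperatures): synchronized HeLa Kyoto cells, proteins quantified by TMT10plex mass spectrometry, three biological replicates, mitosis taken 0.5 h after nocodazole release, G1/S directly after double thymidine block.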
Sequence,solubility change mitosis (log2) (HeLa Kyoto [1]),thermal stability score (HeLa Kyoto [2]; [5]),thermal stability score (HeLa Kyoto [2]; cell cycle stage: mitosis),melting temperature (HeLa Kyoto [3]; cell cycle stage: G1/S) [°C],melting temperature (HeLa Kyoto [3]; cell cycle stage: mitosis) [°C],solubility in G1/S (log2) (HeLa Kyoto [4])
MPLLFLERFPWPSLRTYTGLSGLALLGTIISAYRALSQPEAGPGEPDQLTASLQPEPPAPARPSAGGPRARDVAQYLLSDSLFVWVLVNTACCVLMLVAKLIQCIVFGPLRVSERQHLKDKFWNFIFYKFIFIFGVLNVQTVEEVVMWCLWFAGLVFLHLMVQLCKDRFEYLSFSPTTPMSSHGRVLSLLVAMLLSCCGLAAVCSITGYTHGMHTLAFMAAESLLVTVRTAHVILRYVIHLWDLNHEGTWEGKGTYVYYTDFVMELTLLSLDLMHHIHMLLFGNIWLSMASLVIFMQLRYLFHEVQRRIRRHKNYLRVVGNMEARFAVATPEELAVNNDDCAICWDSMQAARKLPCGHLFHNSCLRSWLEQDTSCPTCRMSLNIADNNRVREEHQGENLDENLVPVAAAEGRPRLNQHNHFFHFDGSRIASWLPSFSVEVMHTTNILGITQASNSQLNAMAHQIQEMFPQVPYHLVLQDLQLTRSVEITTDNILEGRIQVPFPTQRSDSIRPALNSPVERPSSDQEEGETSAQTERVPLDLSPRLEETLDFGEVEVEPSEVEDFEARGSRFSKSADERQRMLVQRKDELLQQARKRFLNKSSEDDAASESFLPSEGASSDPVTLRRRMLAAAAERRLQKQQTS [AMFR],-0.081,0.15,-0.174,51.3,51.3,-0.387
MPLTGVEPARMNRKKGDKGFESPRPYKLTHQVVCINNINFQRKSVVGFVELTIFPTVANLNRIKLNSKQCRIYRVRINDLEAAFIYNDPTLEVCHSESKQRNLNYFSNAYAAAVSAVDPDAGNGELCIKVPSELWKHVDELKVLKIHINFSLDQPKGGLHFVVPSVEGSMAERGAHVFSCGYQNSTRFWFPCVDSYSELCTWKLEFTVDAAMVAVSNGDLVETVYTHDMRKKTFHYMLTIPTAASNISLAIGPFEILVDPYMHEVTHFCLPQLLPLLKHTTSYLHEVFEFYEEILTCRYPYSCFKTVFIDEAYVEVAAYASMSIFSTNLLHSAMIIDETPLTRRCLAQSLAQQFFGCFISRMSWSDEWVLKGISGYIYGLWMKKTFGVNEYRHWIKEELDKIVAYELKTGGVLLHPIFGGGKEKDNPASHLHFSIKHPHTLSWEYYSMFQCKAHLVMRLIENRISMEFMLQVFNKLLSLASTASSQKFQSHMWSQMLVSTSGFLKSISNVSGKDIQPLIKQWVDQSGVVKFYGSFAFNRKRNVLELEIKQDYTSPGTQKYVGPLKVTVQELDGSFNHTLQIEENSLKHDIPCHSKSRRNKKKKIPLMNGEEVDMDLSAMDADSPLLWIRIDPDMSVLRKVEFEQADFMWQYQLRYERDVVAQQESILALEKFPTPASRLALTDILEQEQCFYRVRMSACFCLAKIANSMVSTWTGPPAMKSLFTRMFCCKSCPNIVKTNNFMSFQSYFLQKTMPVAMALLRDVHNLCPKEVLTFILDLIKYNDNRKNKFSDNYYRAEMIDALANSVTPAVSVNNEVRTLDNLNPDVRLILEEITRFLNMEKLLPSYRHTITVSCLRAIRVLQKNGHVPSDPALFKSYAEYGHFVDIRIAALEAVVDYTKVDRSYEELQWLLNMIQNDPVPYVRHKILNMLTKNPPFTKNMESPLCNEALVDQLWKLMNSGTSHDWRLRCGAVDLYFTLFGLSRPSCLPLPELGLVLNLKEKKAVLNPTIIPESVAGNQEAANNPSSHPQLVGFQNPFSSSQDEEEIDMDTVHDSQAFISHHLNMLERPSTPGLSKYRPASSRSALIPQHSAGCDSTPTTKPQWSLELARKGTGKEQAPLEMSMHPAASAPLSVFTKESTASKHSDHHHHHHHEHKKKKKKHKHKHKHKHKHDSKEKDKEPFTFSSPASGRSIRSPSLSD [TAF2],0.123,0.286,0.175,49.6,50.2,-0.657
MPLVKRNIDPRHLCHTALPRGIKNELECVTNISLANIIRQLSSLSKYAEDIFGELFNEAHSFSFRVNSLQERVDRLSVSVTQLDPKEEELSLQDITMRKAFRSSTIQDQQLFDRKTLPIPLQETYDVCEQPPPLNILTPYRDDGKEGLKFYTNPSYFFDLWKEKMLQDTEDKRKEKRKQKQKNLDRPHEPEKVPRAPHDRRREWQKLAQGPELAEDDANLLHKHIEVANGPASHFETRPQTYVDHMDGSYSLSALPFSQMSELLTRAEERVLVRPHEPPPPPPMHGAGDAKPIPTCISSATGLIENRPQSPATGRTPVFVSPTPPPPPPPLPSALSTSSLRASMTSTPPPPVPPPPPPPATALQAPAVPPPPAPLQIAPGVLHPAPPPIAPPLVQPSPPVARAAPVCETVPVHPLPQGEVQGLPPPPPPPPLPPPGIRPSSPVTVTALAHPPSGLHPTPSTAPGPHVPLMPPSPPSQVIPASEPKRHPSTLPVISDARSVLLEAIRKGIQLRKVEEQREQEAKHERIENDVATILSRRIAVEYSDSEDDSEFDEVDWLE [WASF1],0.025,-0.0852,0.459,51.5,52,0.124
MPMWAGGVGSPRRGMAPASTDDLFARKLRQPARPPLTPHTFEPRPVRGPLLRSGSDAGEARPPTPASPRARAHSHEEASRPAATSTRLFTDPLALLGLPAEEPEPAFPPVLEPRWFAHYDVQSLLFDWAPRSQGMGSHSEASSGTLASAEDQAASSDLLHGAPGFVCELGGEGELGLGGPASPPVPPALPNAAVSILEEPQNRTSAYSLEHADLGAGYYRKYFYGKEHQNFFGMDESLGPVAVSLRREEKEGSGGGTLHSYRVIVRTTQLRTLRGTISEDALPPGPPRGLSPRKLLEHVAPQLSPSCLRLGSASPKVPRTLLTLDEQVLSFQRKVGILYCRAGQGSEEEMYNNQEAGPAFMQFLTLLGDVVRLKGFESYRAQLDTKTDSTGTHSLYTTYQDHEIMFHVSTMLPYTPNNQQQLLRKRHIGNDIVTIVFQEPGSKPFCPTTIRSHFQHVFLVVRAHTPCTPHTTYRVAVSRTQDTPAFGPALPAGGGPFAANADFRAFLLAKALNGEQAAGHARQFHAMATRTRQQYLQDLATNEVTTTSLDSASRFGLPSLGGRRRAAPRGPGAELQAAGSLVWGVRAAPGARVAAGAQASGPEGIEVPCLLGISAEALVLVAPRDGRVVFNCACRDVLAWTFSEQQLDLYHGRGEAITLRFDGSPGQAVGEVVARLQLVSRGCETRELALPRDGQGRLGFEVDAEGFVTHVERFTFAETAGLRPGARLLRVCGQTLPSLRPEAAAQLLRSAPKVCVTVLPPDESGRPRRSFSELYTLSLQEPSRRGAPDPVQDEVQGVTLLPTTKQLLHLCLQDGGSPPGPGDLAEERTEFLHSQNSLSPRSSLSDEAPVLPNTTPDLLLATTAKPSVPSADSETPLTQDRPGSPSGSEDKGNPAPELRASFLPRTLSLRNSISRIMSEAGSGTLEDEWQAISEIASTCNTILESLSREGQPIPESGDPKGTPKSDAEPEPGNLSEKVSHLESMLRKLQEDLQKEKADRAALEEEVRSLRHNNRRLQAESESAATRLLLASKQLGSPTADLA [SIPA1],0.0512,1.19,0.467,50.8,51.4,-0.217
MPNIKIFSGSSHQDLSQKIADRLGLELGKVVTKKFSNQETCVEIGESVRGEDVYIVQSGCGEINDNLMELLIMINACKIASASRVTAVIPCFPYARQDKKDKSRAPISAKLVANMLSVAGADHIITMDLHASQIQGFFDIPVDNLYAEPAVLKWIRENISEWRNCTIVSPDAGGAKRVTSIADRLNVDFALIHKERKKANEVDRMVLVGDVKDRVAILVDDMADTCGTICHAADKLLSAGATRVYAILTHGIFSGPAISRINNACFEAVVVTNTIPQEDKMKHCSKIQVIDISMILAEAIRRTHNGESVSYLFSHVPL [PRPS1],-0.136,1.55,0.473,57.3,57.4,-0.185
MPNIVLFSGSSHQDLSQRVADRLGLELGKVVTKKFSNQETSVEIGESVRGEDVYIIQSGCGEINDNLMELLIMINACKIASSSRVTAVIPCFPYARQDKKDKSRAPISAKLVANMLSVAGADHIITMDLHASQIQGFFDIPVDNLYAEPAVLQWIRENIAEWKNCIIVSPDAGGAKRVTSIADRLNVEFALIHKERKKANEVDRMVLVGDVKDRVAILVDDMADTCGTICHAADKLLSAGATKVYAILTHGIFSGPAISRINNAAFEAVVVTNTIPQEDKMKHCTKIQVIDISMILAEAIRRTHNGESVSYLFSHVPL [PRPS2],-0.112,3.16,2.12,55.1,55.9,-0.014
